In publication PMC314469, “Protein Interaction Networks by Proteome Peptide Scanning” (PLoS Biology, 2004):

T1: amphyphisin SH3 (AMPH_HUMAN), P49418
T1 chain: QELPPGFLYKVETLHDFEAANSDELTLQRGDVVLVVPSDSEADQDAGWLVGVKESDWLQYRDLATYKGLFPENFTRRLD


Tests used:
[1] = molecular target: T1, amphyphisin SH3 (AMPH_HUMAN), P49418; assay: SPOT array
[2] = molecular target: endophilin SH3 (SH3G2_HUMAN), Q99962; assay: SPOT array

| normalised SPOT signal, Boehringer light units (BLU); mean over the file's lines of this peptide [1] | normalised SPOT signal, Boehringer light units (BLU); mean over the file's lines of this peptide [2] | Binder |
| --- | --- | --- |
| 39.9 | 117 | FVTELRRPVAVRAK [Q9NW72 376-389] |
| 3020 | 5760 | AIAPPPRPPKPSQA [Q9UQC2 347-361] |
| 193 | 111 | FNKYLSRPKRFEVA [P50219 263-276] |
| 31.3 | 71.1 | AKDLLRRPFDLMLV [Q9BZW5 208-221] |
| 88 | 59.2 | FTDLPKKPPPPEVT [Q96QH2 75-89] |
| 14.2 | 382 | FLTRLRRPIGKMTI [P28288 243-256] |
| 879 | 292 | FSHILKRPDRVLLI [P33076 484-497] |
| 26.2 | 100 | FNFDFRRPGPEPPR [O43559 400-413] |
| 3720 | 224 | FVSPPNRPFRSKND [Q07954 3693-3706] |
| 172 | 5220 | FSHLLRRPPPEAPR [O76081 86-99] |
| 724 | 2010 | FLNRLVRPRRSAPK [O43508 84-97] |
| 0 | 59 | AKINLKRPPTAGSQ [Q9HA08 198-211] |
| 58.5 | 35.3 | FSESLKRPWEDDPP [Q9Y384 121-134] |
| 340 | 1540 | FRRLPTRPRKGGPE [Q9NXF8 292-305] |
| 336 | 204 | FNRYLSRPRRVEMA [O43365 212-225] |
| 255 | 156 | FNKYLSRPRRVEIA [O43364 164-177] |
| 59.5 | 66.2 | GASLFNRPTKLFEP [O75077 489-502] |
| 2710 | 76.1 | FTGPPQKPPRLGAQ [Q14289 851-865] |
| 5790 | 889 | FRRVLLRPSRRVRS [P32745 324-337] |
| 190 | 122 | FVYNFIRPVKGKVS [Q9NUW7 10-23] |
| 22.4 | 61.9 | FTKTIKRPFGVKYN [P17752 389-402] |

| normalised SPOT signal, Boehringer light units (BLU); mean over the file's lines of this peptide [1] | normalised SPOT signal, Boehringer light units (BLU); mean over the file's lines of this peptide [2] | Binder |
| --- | --- | --- |
| 129 | 129 | GAARLGRPGRSSLP [P34925 3-16] |
| 10100 | 18800 | FVLRPLRPSRRYST [Q14539 22-35] |
| 1620 | 17300 | FVLVPLRPPSPARS [O75055 1510-1524] |
| 74.9 | 109 | FRGSFRRPDNLSLA [Q9Y4B7 288-301] |
| 32.9 | 32.9 | FQEFLKRPDHKQDF [Q9C093 551-564] |
| 349 | 12400 | FWQSPKRPPSPIKF [Q9H3T7 733-747] |
| 115 | 3350 | FNFDIRRPSLEHRQ [O43558 420-433] |
| 92 | 100 | FNQALGRPEKIHNK [Q9UHP3 379-392] |
| 3820 | 4600 | FYYRPPRPPKGASK [P46527 86-100] |
| 53.3 | 175 | FYRDLRRPFSAPDA [Q9HB63 378-391] |
| 38.2 | 43.1 | FVTELRRPDAVRTK [Q9NQ90 781-794] |
| 562 | 425 | FPTVPTRPEKGYIW [Q99995 108-121] |
| 1090 | 2080 | FSFSLPRPGRRGSR [O00538 575-588] |
| 64.1 | 93 | FNDSPYKPPVTRSN [Q9H7L2 189-203] |
| 1130 | 1160 | FMSSPRRPRSRGRQ [Q9HAP2 6-19] |
| 23.8 | 12.8 | FVNEIRRPNGENYA [Q9UBW7 1125-1138] |
| 242 | 385 | FNKYISRPRRVELA [P52945 167-180] |
| 957 | 202 | GAASISRPTRAVPS [P35568 971-984] |
| 402 | 1390 | AILTLPRPVRASLP [Q9NQ75 154-167] |
| 37.5 | 51.3 | FSSFLKRPKSQVSE [P11171 83-96] |
| 30.1 | 35.9 | FSSVPSKPPMSLEP [Q96E32 219-233] |
